Paper PMC10156745, “Tuning charge density of chimeric antigen receptor optimizes tonic signaling and CAR-T cell fitness” (Cell Research, 2023)

Biological target: T1, CD19 on Nalm6 cells (Homo sapiens, UniProt P15391)
T1 construct: CD19 (B-lymphocyte antigen CD19) on the surface of Nalm6 cells; this is surmised; source: Nalm6 cells expressing CD19 on the cell surface
Assay: flow cytometry on cells; purified antibodies titrated on Nalm6 cells expressing CD19; cell-based FACS assay
Details: one partner purified

T1 sequence (P15391 20-556): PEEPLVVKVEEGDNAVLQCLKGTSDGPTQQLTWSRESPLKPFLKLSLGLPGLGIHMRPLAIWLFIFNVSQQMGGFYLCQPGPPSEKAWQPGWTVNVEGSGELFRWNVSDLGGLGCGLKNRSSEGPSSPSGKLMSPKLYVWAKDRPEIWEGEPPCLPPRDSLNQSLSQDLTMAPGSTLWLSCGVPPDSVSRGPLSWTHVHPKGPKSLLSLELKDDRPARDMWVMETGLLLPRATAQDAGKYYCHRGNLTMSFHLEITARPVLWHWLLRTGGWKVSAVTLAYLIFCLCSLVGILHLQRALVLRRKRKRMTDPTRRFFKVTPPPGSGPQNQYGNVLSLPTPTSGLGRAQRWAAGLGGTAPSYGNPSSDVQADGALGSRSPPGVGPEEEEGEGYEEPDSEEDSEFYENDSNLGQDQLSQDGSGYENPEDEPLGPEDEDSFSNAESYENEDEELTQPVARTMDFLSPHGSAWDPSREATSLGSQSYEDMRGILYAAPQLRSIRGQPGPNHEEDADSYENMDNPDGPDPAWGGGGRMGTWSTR

B1: CD19^M1 antibody (antibody, V domains shown)
VH: EVKLKESGPGLVAPSQSLSVTCKASGVSLPDYGVSWIRQPPRKGLEWLGVIWGSETTYYNSALKSRLTIIKDNSKSQVFLKMNSLQTDDTAIYYCAKHYYYGGSYAMDYWGQGTSVTVSS
VL: DIKMTQTTSSLSASLGDRVTISCRASQDISKYLNWYQQKPDGTVKLLIYHTSRLHSGVPSRFSGSGSGTDYSLTISNLEQEDIATYFCQQGNTLPYTFGGGTKLEIK
notes: as the VH of m1 (FMC63) with uncharged framework residues mutated to lysines; human IgG1 constant region, fused to the variable region in the pCMV plasmid; as the VL of m1 (FMC63) with uncharged framework residues mutated to lysines; light-chain constant region; IgG1 format; Variant of FMC63 with positively charged patches introduced into the framework regions; also called PCP-modified CD19 …
B1 gave an EC50 of 2.6 nM.
